Experimental data as given in US20250051425A1 (YALE UNIVERSITY, published 2025).

Assays:
[1] = target: T1, Influenza A H1N1 (A/Puerto Rico/8/1934) Hemagglutinin/HA Protein (ECD, His Tag) (Influenza A H1N1 (A/Puerto Rico/8/1934), UniProt P03452 18-528); experiment: ELISA, coated antigen
T1 construct: extracellular domain; Bought; also called influenza A/PR8 (H1N1) hemagglutinin (HA); H1N1 HA

[2] = target: T2, SARS S1 protein, His Tag (SARS-CoV-1, UniProt P59594 14-667); experiment: ELISA, coated antigen, mAb 3 µg/mL
T2 construct: domain: S1; also called recombinant severe acute respiratory syndrome coronavirus 1 (SARS-CoV-1) spike protein

T1 sequence (P03452 18-528): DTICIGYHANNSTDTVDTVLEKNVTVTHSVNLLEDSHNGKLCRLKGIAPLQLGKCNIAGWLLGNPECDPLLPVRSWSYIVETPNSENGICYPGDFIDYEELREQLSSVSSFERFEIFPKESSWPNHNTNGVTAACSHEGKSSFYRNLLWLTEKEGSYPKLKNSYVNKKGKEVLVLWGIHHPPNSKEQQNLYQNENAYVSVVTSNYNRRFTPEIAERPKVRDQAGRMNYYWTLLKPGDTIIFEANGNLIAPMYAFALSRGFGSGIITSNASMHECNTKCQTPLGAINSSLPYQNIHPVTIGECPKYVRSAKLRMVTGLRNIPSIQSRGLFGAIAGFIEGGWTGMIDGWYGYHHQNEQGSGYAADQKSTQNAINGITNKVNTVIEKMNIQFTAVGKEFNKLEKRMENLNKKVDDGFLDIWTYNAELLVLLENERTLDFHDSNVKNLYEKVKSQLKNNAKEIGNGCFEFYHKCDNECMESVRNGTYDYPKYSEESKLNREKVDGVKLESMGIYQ

B1: IGHV6-3 monoclonal antibody (mouse IgG2c, Ig kappa) (antibody, V domains shown)
VH: EVKLEESGGGLVQPGGSMKLSCVASGFTFSNYWMNWVRQSPEKGLEWVAQIRLKSDNYATHYAESVKGRFTISRDDSKSSVYLQMNNLRAEDTGIYYCTDITGPIDYWGQGTTLTVSS
VL: DIKMTQSPSSMYASLGERVTITCKASQDINSYLSWFQQKPGKSPKTLIYRANRLVDGVPSRFSGSGSGQDYSLTISSLEYEDMGIYYCLQYDEFPYTFGGGTKLEIK
notes: also called IGHV6-3 mAb; Mouse IGHV6-3 mAb, g2c
B1: binds [1]; binds [2].
